Measurements taken from the DeepSol protein solubility set.

experiment: soluble on expression in E. coli; label from the status in PepcDB or PDB records

| Sequence | soluble on expression in E. coli |
| --- | --- |
| MGSDKIHHHHHHMTLALGRLDSITLLLPDPELFLYSYVRREAVLSSQIEGTQSTLTQLMLFELEESPGVPFDDVVEVSNYVAALDHGVARLKEGFPLSNRLIREMHTVLLFRGRGSNKGPGEFRRSQNWIGGTRPGNALFVPPPPHLVPQCMADLERFLHDENNPYPSVLKAALAHVQFETIHPFLDGNGRIGRLLIAFILHHDGILSRPLLYLSLYFKRHRETYYRLLDRVRTEGDWEAWTDFFLEGVRETAGNAVDTARRLIALFEADQQKIQSLGRSASSTLQVFQAFKERPLLTVGRISERTGLSFPAANQAVGRMEKKLGIVREITGRRRERAYAYDQYVAILNEGAEE | not soluble |
| MGSDKIHHHHHHMTLPISVFIITKNEEKHIAKTLASVKDMDEVILVDSGSTDKTLSIAQQFGATIFSHEWQGYAKQKQYAMSLCRNEWVLNLDGDEAINPQLIAAFKEIIEQDKADSVRFWRNDIFIGKPLSSLSKKPNNHRLYKKSKSFFDDSRLAHESATVDGKEIFINQVFDHYGYDSIAAITNKNNTYSTLKADEKFVKGKSFSHLKLFLIFPLVFIKEYLLQRKLFSGRRGFILAVMEAYYAFLKEAKLFENHQNKPN | not soluble |
| MGSDKIHHHHHHMTMDAATAVSDQGKQDLPAGDGATLSLKDRIARDLGQRILAGIYAQHAVLPTEAELCVIYGASRTALRDALLTLSAKGLIEARKRAGTRVRVSSEWNRLDAQVLEWMRDIEPDLDFVRGLIEARLVIEPAAAQLAAKMATSGDLAVIEAAYEAMRIAPEDDLAACLDADVRFHTAILRASRNPVFANLGNMLAAALSFSFRLTTSATANYQQTLSAHGDVLEAIRMRRVDDAHDQMKALIGIASNDLLAVARKGRHQQPVPTASADPI | not soluble |
| MGSDKIHHHHHHMTNDAIVIGSGIGGLVTATQLAAKGAKVLVLERYLIPGGSAGYFERQGYRFDVGASMIFGLGQNGTTNLLTRALTAVNVSQDAIADPVQIHYHLPQGLDLKVDRVYEKFLQNLIAHFPHEEKGIRRFYDECQKVFKCLNSMDLLSLEEPWYLLRVFFQHPLACLGLVKYLPQNAGDFARRYIKDPKLLKFIDMECYCWSVVPSDMTPMINAGMVFSDRHYGGVNYPKGGVGQIAQKLVEGLEKAGGKIQYKARVTKILTEKGKAVGVQLANGKVYRGKRIVSNATRWDTFEQLLPAEEMPLNEKKWQQNYQKSPSFLSLHIGVKESVLPVGTECHHILLEGWEKMTAVEGTIFVSIPTLLDPDLAPSGYHIIHAFTPHWIDDWQELSPSEYKAKKEEAAGRIIDRLEKIFPGLDAGLDYLEVGTPRTHRRFLGRQDGSYGPIPRRKLRGLLKMPFNRTAIPGLYCVGDSTFPGQGLNAVAFSGFACAHRIAVDLGF | not soluble |
| MGSDKIHHHHHHMTNHQHPQTTTQWIDLIANSELPAITSTARMLDKFSNDDKSSLPKLSEAILHDQGLSSCLLKVANNIQHISINKVTTVSRASVVLGIQSVKNICLTAKLVSSLLASKSLDINVYEQLTQLMANSFYAGMLAKMMVPNYSEEIQEEVYLAAMLYRIGESAFWSAGGDVAKKLANYEAKSPQDFNQYCRKEMGTNFSELSKGLAGTWNLSDLLIKALDQPTTRTDEVKVIYFADKLSAIIAKPEGCEEDYHKLLKEIAYIVGISVRQLTVRIEHTREQAEKLLSSYGAEILTERINSLPTAEDFKSLGGDFDTREVVSKDKALLNGFMKLTKLIQNSKDFNEYLQLTLESLALTFAFDRSSFLMLVDDRARVKSRLVVNKNAQDDASKINIDIKHSDNVIARVISTDTAALINDHQEIRWRDLVTEEISEVIVEGAIAFVPVKIGGKAIGVICLQLLSPDQKIETQDFQQICAFIDHLNMCLTMIKYS | not soluble |
| MGSDKIHHHHHHMTNIPFIYQYEEKENERAAAGYGTFGYLITRIEETLYDQYGVFYELYASDDPNTEYWELLVEDVRSGSLEPEHVAYIFEKLEKKTFAYDEDEKEPDYTVHKSIRNSVYAYPEKGVAFARIPYFQDGSIMSFDCLFAVNDEKMRAFLEGVRPRLWEKSKRKVTVFTDGDGGTSREQEAIVREVQRSQVIMNPLLKKEIYRSIDQFFHSDKSFYQTYDIPYKRGILLYGPPGNGKTTLVKSIAGSIDAPVAYWQITEFTSSETIEEVFQAARRLAPAVLVIEDIDSMPEDVRSFFLNTLDGATSKEGLFLIGTTNYPEEIDPGLMNRAGRFDRAYEIGLPDEELRLEYMKMRGFGIFLSEGEIKNAAKLTEGFSFAQLGELYVSSALQWHQEGNHHIETMVKDMTGEQRKSQRGSWMERNKVGFH | not soluble |
